Results on four molecules are retold here after publication PMC10782416, “Fluorescence Correlation Spectroscopy as a Versatile Method to Define Aptamer–Protein Interactions with Single-Molecule Sensitivity”.

By Kd is commonly meant the free concentration of one partner at which half of the binding sites on the other are occupied at equilibrium, for simple one-to-one binding.

The target of series [1] is T1, c-Met (soluble recombinant, hepatocyte growth factor receptor) (Homo sapiens, UniProt P08581 25-932). In words: FCS; c-Met up to 100 nM; PBS pH 7.4; aptamer folded in PBS with 5 mM MgCl2 (1 mM for AS1411 and 36t), 90 C 2 min then cooled; final buffer not detailed; overnight at room temperature; 100 pM aptamer (1 nM for serum proteins). The settings on record: protein: commercial; tags: polyhistidine tag; chain copies: 2; label: 5'-atto633; G-quadruplex destabilized.

A further series concerns the target nucleolin (NCL) (Homo sapiens, UniProt P19338 1-710). In words: FCS; 1 mM Mg2+ in folding buffer; PBS pH 7.4; aptamer folded in PBS with 5 mM MgCl2 (1 mM for AS1411 and 36t), 90 C 2 min then cooled; final buffer not detailed; overnight at room temperature; 100 pM aptamer (1 nM for serum proteins). The conditions noted are these: protein: commercial; label: 5'-atto633.

The target in a further series is PDGF-BB (Homo sapiens, UniProt P01127 82-190). In words: FCS; 1 mg/mL BSA; 1 mM Mg2+ in folding buffer; titration regime; PBS pH 7.4; aptamer folded in PBS with 5 mM MgCl2 (1 mM for AS1411 and 36t), 90 C 2 min then cooled; final buffer not detailed; overnight at room temperature; 100 pM aptamer (1 nM for serum proteins). The conditions noted are these: protein: commercial; chain copies: 2; label: 5'-atto633.

In series [2] the target is T1, c-Met (soluble recombinant, hepatocyte …). In words: FCS; 5 mM Mg2+ in folding buffer; 100 pM aptamer; PBS pH 7.4; aptamer folded in PBS with 5 mM MgCl2 (1 mM for AS1411 and 36t), 90 C 2 min then cooled; final buffer not detailed; overnight at room temperature; 100 pM aptamer (1 nM for serum proteins). The conditions noted are these: protein: commercial; tags: polyhistidine tag; label: 5'-atto633; G-quadruplex.

A further series deals with transferrin (Tf) (Homo sapiens, UniProt P02787 20-698). The experiment in a line: FCS; Tf 1-100 uM; PBS pH 7.4; aptamer folded in PBS with 5 mM MgCl2 (1 mM for AS1411 and 36t), 90 C 2 min then cooled; final buffer not detailed; overnight at room temperature; 100 pM aptamer (1 nM for serum proteins). The conditions noted are these: protein: native; label: 5'-atto633; G-quadruplex.

In another series the target is fibrinogen (Fibr) (Homo sapiens, UniProt P02671;P02675;P02679 20-629;31-491;27-433). In words: FCS; fibrinogen 1-10 uM; PBS pH 7.4; aptamer folded in PBS with 5 mM MgCl2 (1 mM for AS1411 and 36t), 90 C 2 min then cooled; final buffer not detailed; overnight at room temperature; 100 pM aptamer (1 nM for serum proteins). The settings on record: protein: native; chain copies: 2;2;2; label: 5'-atto633; G-quadruplex.

Series [3] concerns the target T1, c-Met (soluble recombinant, hepatocyte …). The experiment in a line: FCS kinetics (koff/kon); kon 1.70e4 M-1 s-1; koff 4.30e-4 s-1; PBS pH 7.4; aptamer folded in PBS with 5 mM MgCl2 (1 mM for AS1411 and 36t), 90 C 2 min then cooled; final buffer not detailed; overnight at room temperature; 100 pM aptamer (1 nM for serum proteins). The settings on record: protein: commercial; tags: polyhistidine tag; label: 5'-atto633; G-quadruplex.

The target is the same in series [4]. The experiment in a line: FCS; serum protein mix: HSA, IgG, transferrin, fibrinogen; PBS pH 7.4; aptamer folded in PBS with 5 mM MgCl2 (1 mM for AS1411 and 36t), 90 C 2 min then cooled; final buffer not detailed; overnight at room temperature; 100 pM aptamer (1 nM for serum proteins). The conditions noted are these: protein: commercial; tags: polyhistidine tag; label: 5'-atto633; G-quadruplex.

T1 sequence (P08581 25-932): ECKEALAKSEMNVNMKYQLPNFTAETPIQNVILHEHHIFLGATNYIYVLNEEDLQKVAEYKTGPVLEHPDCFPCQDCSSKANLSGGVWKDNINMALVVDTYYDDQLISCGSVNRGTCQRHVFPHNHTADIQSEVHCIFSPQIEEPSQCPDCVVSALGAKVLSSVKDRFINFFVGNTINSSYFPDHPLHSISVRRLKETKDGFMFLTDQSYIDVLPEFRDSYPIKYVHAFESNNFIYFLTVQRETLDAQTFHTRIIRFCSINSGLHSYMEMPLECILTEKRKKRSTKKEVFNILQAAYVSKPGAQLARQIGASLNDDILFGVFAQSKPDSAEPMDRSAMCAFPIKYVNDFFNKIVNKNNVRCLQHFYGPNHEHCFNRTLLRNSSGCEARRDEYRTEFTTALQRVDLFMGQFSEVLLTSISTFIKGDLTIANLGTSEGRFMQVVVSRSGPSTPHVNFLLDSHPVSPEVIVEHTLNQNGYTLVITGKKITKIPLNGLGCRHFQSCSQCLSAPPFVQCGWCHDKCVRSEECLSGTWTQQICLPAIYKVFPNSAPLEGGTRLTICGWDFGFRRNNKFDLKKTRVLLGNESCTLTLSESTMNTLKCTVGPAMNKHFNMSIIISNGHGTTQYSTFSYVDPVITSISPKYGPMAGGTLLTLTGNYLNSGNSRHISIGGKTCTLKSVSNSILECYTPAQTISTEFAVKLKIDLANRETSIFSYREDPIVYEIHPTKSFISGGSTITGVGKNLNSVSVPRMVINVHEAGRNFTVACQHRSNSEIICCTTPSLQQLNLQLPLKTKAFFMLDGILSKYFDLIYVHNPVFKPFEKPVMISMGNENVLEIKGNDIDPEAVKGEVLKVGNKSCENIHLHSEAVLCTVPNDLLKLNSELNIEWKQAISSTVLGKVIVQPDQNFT
Chain of transferrin (Tf) (P02787 20-698): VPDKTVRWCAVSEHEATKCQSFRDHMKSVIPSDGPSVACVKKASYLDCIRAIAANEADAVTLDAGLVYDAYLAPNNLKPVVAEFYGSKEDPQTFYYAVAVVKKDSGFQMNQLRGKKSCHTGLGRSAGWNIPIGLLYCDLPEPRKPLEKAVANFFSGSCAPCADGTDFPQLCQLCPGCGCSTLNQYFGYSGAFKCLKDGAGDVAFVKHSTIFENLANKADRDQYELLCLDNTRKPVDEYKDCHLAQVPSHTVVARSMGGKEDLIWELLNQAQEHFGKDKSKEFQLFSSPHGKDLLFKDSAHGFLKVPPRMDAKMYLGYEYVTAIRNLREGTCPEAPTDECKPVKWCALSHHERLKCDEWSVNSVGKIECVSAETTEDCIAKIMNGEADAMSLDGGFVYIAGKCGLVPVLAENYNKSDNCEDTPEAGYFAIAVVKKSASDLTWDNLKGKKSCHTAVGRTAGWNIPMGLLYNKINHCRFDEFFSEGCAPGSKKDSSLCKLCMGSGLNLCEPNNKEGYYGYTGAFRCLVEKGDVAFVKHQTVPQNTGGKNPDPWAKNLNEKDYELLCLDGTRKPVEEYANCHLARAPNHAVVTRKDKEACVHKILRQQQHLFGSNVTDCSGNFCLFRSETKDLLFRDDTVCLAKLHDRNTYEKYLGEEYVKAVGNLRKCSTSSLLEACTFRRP
Chain of nucleolin (NCL) (P19338 whole entry): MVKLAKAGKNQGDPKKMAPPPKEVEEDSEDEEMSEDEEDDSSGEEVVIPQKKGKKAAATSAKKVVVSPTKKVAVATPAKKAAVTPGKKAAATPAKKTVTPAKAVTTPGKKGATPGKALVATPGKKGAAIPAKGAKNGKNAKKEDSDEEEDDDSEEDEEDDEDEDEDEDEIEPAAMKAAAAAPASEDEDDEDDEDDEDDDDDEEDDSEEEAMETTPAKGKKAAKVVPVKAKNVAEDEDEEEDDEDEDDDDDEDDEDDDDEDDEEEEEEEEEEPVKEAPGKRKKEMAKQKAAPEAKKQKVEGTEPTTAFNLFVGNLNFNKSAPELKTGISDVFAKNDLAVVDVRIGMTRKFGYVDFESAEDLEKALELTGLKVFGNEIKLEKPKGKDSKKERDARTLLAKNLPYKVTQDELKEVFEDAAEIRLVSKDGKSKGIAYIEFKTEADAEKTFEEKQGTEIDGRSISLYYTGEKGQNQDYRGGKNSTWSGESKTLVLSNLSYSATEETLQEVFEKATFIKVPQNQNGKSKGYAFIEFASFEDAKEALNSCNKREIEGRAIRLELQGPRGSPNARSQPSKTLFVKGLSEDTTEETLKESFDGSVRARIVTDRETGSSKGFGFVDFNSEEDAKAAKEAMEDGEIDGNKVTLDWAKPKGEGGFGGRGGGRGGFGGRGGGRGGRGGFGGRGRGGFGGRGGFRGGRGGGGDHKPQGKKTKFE
Chain of PDGF-BB (P01127 82-190): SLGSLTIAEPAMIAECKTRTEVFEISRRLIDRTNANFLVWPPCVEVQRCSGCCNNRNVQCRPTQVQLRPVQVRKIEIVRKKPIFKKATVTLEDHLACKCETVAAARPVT
Chain of fibrinogen (Fibr) (P02671 20-629, chain 1 of 3): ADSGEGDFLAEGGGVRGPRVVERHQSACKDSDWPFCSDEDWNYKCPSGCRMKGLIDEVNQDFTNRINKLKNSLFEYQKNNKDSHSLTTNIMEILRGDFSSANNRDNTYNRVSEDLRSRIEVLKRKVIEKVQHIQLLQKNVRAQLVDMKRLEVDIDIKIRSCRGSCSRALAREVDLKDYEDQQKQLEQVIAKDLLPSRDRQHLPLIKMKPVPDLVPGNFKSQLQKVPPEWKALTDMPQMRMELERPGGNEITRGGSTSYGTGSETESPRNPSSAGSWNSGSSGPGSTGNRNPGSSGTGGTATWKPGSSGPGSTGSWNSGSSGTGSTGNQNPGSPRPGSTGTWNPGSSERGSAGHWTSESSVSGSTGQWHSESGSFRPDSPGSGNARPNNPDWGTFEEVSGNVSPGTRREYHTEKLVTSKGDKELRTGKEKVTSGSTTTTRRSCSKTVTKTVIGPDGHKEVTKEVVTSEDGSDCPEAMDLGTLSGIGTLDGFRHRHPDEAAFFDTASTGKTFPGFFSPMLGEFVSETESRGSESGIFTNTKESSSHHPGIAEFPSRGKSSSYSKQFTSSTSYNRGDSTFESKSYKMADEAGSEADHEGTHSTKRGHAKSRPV
Chain of fibrinogen (Fibr) (P02675 31-491, chain 2 of 3): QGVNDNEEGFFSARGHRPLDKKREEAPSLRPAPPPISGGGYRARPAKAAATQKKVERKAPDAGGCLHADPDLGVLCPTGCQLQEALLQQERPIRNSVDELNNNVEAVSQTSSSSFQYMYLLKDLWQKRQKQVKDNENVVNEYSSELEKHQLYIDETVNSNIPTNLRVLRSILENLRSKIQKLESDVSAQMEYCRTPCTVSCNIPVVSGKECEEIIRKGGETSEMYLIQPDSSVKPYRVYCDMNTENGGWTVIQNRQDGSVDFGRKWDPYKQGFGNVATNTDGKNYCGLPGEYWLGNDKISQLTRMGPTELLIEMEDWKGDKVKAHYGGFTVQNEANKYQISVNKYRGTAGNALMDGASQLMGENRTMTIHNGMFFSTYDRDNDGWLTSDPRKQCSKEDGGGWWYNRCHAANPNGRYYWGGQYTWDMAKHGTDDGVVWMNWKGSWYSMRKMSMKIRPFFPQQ
Chain of fibrinogen (Fibr) (P02679 27-433, chain 3 of 3): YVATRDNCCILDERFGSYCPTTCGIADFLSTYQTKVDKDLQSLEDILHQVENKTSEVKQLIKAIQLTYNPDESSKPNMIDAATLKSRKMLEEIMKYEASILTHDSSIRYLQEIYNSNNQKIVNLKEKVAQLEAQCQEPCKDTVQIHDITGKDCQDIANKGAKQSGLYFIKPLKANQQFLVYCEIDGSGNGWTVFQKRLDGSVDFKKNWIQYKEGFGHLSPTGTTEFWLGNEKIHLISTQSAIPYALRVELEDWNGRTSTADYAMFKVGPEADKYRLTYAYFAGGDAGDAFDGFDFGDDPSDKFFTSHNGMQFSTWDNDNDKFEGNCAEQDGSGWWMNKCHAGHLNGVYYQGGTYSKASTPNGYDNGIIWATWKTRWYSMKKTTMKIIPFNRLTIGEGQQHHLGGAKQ

B1: G5mut (ssDNA)
DNA: ATCAGGCTGGATGGTAGCTCGGTCGATGTGGATGGTTTGTCAAGTCTGATTA
B1: in series [1], the binding result is “no binding”.

B2: AS1411 (structured_DNA)
DNA: TTTGGTGGTGGTGGTTGTGGTGGTGGTGG
Turning to B2, the Kd with nucleolin (NCL) amounted to 30 nM.

B3: 36t (structured_DNA)
DNA: CACAGGCTACGGCACGTAGAGCATCACCATGATCCTGTG
B3: in the series with PDGF-BB, the Kd was < 1 nM.

B4: CLN3 (structured_DNA)
DNA: ATCAGGTGGATGGTAGCTCGGTCGGGGTGGGTGGGTTGGCAAGTCTGATTA
Turning to B4, the Kd in series [2] is 5 ± 1 nM; in series [3], ~25 nM; in series [4] it was 5 nM. The binding result with transferrin (Tf) and in the series with fibrinogen (Fibr) was “no binding” each time.
